Assay results as given in patent US20240301076A1 (CEPHALON, published 2024).
Values joined by “and” are separate entries in the source; they are usually repeats but may differ in a detail not shown here. Equal entries are not always repeated. Where two headings read alike, the source gives them in different places. One block for each binder: values may come before it.

How the values were obtained:
cynomolgus monkey CXCR2 = molecular target: T1, cynomolgus monkey CXCR2 (cynomolgus monkey, UniProt Q28519 3-353 (rhesus entry)); experiment: flow cytometry, native CXCR2 on cynomolgus PBMC preparations
T1 construct: native on cynomolgus blood cells in the entries below; also called cynomolgus CXCR2
T1 chain: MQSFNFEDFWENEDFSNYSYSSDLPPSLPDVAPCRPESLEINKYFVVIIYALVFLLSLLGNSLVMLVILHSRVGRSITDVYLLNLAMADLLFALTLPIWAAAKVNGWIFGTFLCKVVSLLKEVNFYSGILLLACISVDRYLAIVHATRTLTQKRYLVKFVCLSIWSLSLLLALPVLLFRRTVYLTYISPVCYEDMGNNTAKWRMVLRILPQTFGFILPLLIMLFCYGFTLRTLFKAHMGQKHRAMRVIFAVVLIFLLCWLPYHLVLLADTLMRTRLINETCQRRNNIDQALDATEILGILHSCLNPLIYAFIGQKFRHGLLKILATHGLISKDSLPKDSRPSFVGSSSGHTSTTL
Method: Whole human buffy coat, PBMC enriched fractions prepared from human peripheral blood buffy coat or cynomolgus monkey whole blood was used for analysis of antibody binding activity by flow cytometry. Briefly, blood was untreated or diluted 1:1 in sterile filtered room temperature phosphate-buffered saline (PBS). 30 mL samples were layered over 15 mL Lymphoprep™ (Stem Cell Technologies, cat #07851). Peripheral blood mononuclear cells (PBMC) were enriched by room temperature centrifugation at 700 g for 30 minutes with no braking. The PBMC layer was isolated and cells washed in PBS containing 2 mM EDTA with low speed centrifugation at 200 g, to remove platelet contamination. Whole blood or PBMC enriched cell fractions were resuspended in red blood cell lysing solution (BioLegend, 420301). Viable cell counts were determined and cells resuspended at 1×10⁷ cells per mL in FACS buffer (1×PBS+0.5% (w/v) BSA+2 mM EDTA pH 7.2).
Flow cytometry binding assays using whole blood or PBMC enriched preparations: Binding assays to detect CXCR2 on blood neutrophil populations using test antibodies were performed essentially as described for assays using transiently transfected Expi293F™ cells. […] Matched isotype control antibodies were included for comparison. […] Neutrophil populations were identified by characteristic granularity and size, and positive binding of commercially available antibodies against CD10 (Biolegend, clone Hl10a, catalogue number 312204). Cells were washed and fixed (BioLegend Fixation buffer, 420801) prior to analysis. The level of fluorescence on the cell surface was measured by flow cytometry.

human CXCR2 [1] = molecular target: T2, human CXCR2 (human, UniProt P25025 1-360); experiment: flow cytometry, CXCR2-transfected Expi293F cells
T2 construct: also called CXC chemokine receptor 2; hCXCR2
T2 sequence: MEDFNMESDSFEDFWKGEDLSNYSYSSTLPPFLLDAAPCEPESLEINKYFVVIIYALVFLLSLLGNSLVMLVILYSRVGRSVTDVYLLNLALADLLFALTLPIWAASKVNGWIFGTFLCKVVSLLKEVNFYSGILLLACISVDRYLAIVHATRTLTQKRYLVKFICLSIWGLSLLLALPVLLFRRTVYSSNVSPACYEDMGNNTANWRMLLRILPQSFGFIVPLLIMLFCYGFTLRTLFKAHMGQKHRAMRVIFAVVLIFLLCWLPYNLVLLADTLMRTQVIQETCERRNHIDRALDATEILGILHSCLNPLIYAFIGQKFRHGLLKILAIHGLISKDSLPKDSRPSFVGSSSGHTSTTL
Method: (§1) Harvested cells were resuspended in FACS buffer (1×PBS+0.5% (w/v) bovine serum albumin (BSA)+2 mM EDTA pH 7.2). Approximately 2×10⁵ cells were added per well in a 96-well round-bottomed plate. Cells were pelleted by centrifugation at 400 g for 5 mins at 4° C. and supernatants discarded. 25 μL of each test antibody or control antibody was added to the cells and incubated for 30 minutes at 4° C. Cells were washed twice in 100 μL FACS buffer followed by centrifugation at 400 g for 5 mins at 4° C.
(§2) For detection, 50 μL of secondary antibody (Table 2) was added to relevant samples. Commercially available antibodies that bound to transfected CXCR family members were used as positive controls to ensure that the cells were expressing the receptors. Cells were washed twice in 200 μL of FACS buffer followed by centrifugation at 400 g for 5 mins at 4° C. Before sample acquisition, cells were resuspended in 100 μL of FACS buffer. Samples were acquired using the high throughput sampler on a FACSCanto™ II cytometer (Beckton-Dickinson).
A further six heavy chain combinational variants comprising four or more amino acid substitutions were produced as provided in Table 12. […] Each heavy chain was co-expressed with light chain c (SEQ ID NO:110) to produce an antibody variant. Antibodies were purified and tested for CXCR2 binding activity as described in General Methods.

human CXCR2 [2] = molecular target: T2, human CXCR2; experiment: flow cytometry, CXCR2-transfected Expi293F cells; remark: listed apart in the source
Method: as §1, §2
Each heavy chain was co-expressed with each light chain to produce a sequence optimized antibody variant. Antibodies were purified and tested for CXCR2 binding activity as described in General Methods.

human CXCR2 [3] = molecular target: T2, human CXCR2; experiment: cell-based or functional assay
human CXCR1 = molecular target: T3, human CXCR1 (human, UniProt P25024 1-350); experiment: flow cytometry, transfected Expi293F cells
T3 sequence: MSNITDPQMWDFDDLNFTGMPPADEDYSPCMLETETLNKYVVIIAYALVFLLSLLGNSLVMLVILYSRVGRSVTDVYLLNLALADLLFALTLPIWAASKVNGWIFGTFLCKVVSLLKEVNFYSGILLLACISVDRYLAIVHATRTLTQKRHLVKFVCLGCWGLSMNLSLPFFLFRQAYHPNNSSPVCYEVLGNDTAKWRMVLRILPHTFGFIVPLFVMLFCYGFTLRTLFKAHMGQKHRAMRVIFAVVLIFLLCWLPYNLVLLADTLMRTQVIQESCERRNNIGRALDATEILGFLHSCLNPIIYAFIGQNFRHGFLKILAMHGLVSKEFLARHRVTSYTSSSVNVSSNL
Method: as §1, §2
(§3) These antibody variable regions were then generated by gene synthesis and subcloned into mammalian expression vectors as described in General Methods. Antibodies were produced by co-expression of heavy and light chain plasmids in Expi293F™ cells and purified by protein A column chromatography as described in General Methods. Where several heavy and/or light chains were identified from the same hybridoma cells, each heavy chain was paired with each light chain and the resulting antibodies given suffix a, b, c, etc. Purified antibodies were desalted into Sorensen's PBS pH 5.8 and tested by flow cytometry for binding to Expi293F™ cells transfected with human CXCR2 or human CXCR1 and mock transfected Expi293F™ cells.

human CXCR2 [4] = molecular target: T2, human CXCR2; experiment: cell-based or functional assay; remark: listed apart in the source
human CXCR2 [5] = molecular target: T2, human CXCR2; experiment: cell-based or functional assay; remark: listed apart in the source
human CXCR2 [6] = molecular target: T2, human CXCR2; experiment: cell-based or functional assay; remark: listed apart in the source
human CXCR2 [7] = molecular target: T2, human CXCR2; experiment: cell-based or functional assay; remark: listed apart in the source
human CXCR2 [8] = molecular target: T2, human CXCR2; experiment: cell-based or functional assay; remark: listed apart in the source
human CXCR2 [9] = molecular target: T2, human CXCR2; experiment: flow cytometry, transfected Expi293F cells
Method: as §1, §2, §3

binding result (cynomolgus monkey CXCR2): binds
EC50 (human CXCR2 [1]): 1.58 nM and 3.82 nM
EC50 (human CXCR2 [2]): 0.4 nM and 0.5 nM and 0.6 nM and 0.9 nM
CXCL1 IC50, Tango assay (human CXCR2 [3]): 94 nM
CXCL8 IC50, Tango assay (human CXCR2 [3]): 0.66 nM
binding result (human CXCR1): no binding
IC50, CXCL1, Tango assay (human CXCR2 [4]): 0.177 nM
IC50, CXCL8, Tango assay (human CXCR2 [4]): 0.112 nM
B1: BKO-4A8 (antibody, human IgG4 S228P, lambda)
heavy: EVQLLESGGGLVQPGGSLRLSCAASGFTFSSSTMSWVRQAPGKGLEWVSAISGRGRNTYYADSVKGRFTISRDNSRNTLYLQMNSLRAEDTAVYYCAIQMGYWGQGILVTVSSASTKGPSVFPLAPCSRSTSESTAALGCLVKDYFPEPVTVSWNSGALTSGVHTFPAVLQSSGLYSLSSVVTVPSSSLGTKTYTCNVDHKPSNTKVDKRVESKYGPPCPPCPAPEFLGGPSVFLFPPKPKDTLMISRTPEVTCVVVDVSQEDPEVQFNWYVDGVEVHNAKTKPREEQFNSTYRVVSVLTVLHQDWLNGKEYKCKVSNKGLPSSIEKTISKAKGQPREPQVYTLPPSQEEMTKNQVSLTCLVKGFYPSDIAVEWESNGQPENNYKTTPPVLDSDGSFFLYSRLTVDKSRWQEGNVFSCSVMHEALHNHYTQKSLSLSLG
light: QSALTQPPSASGSPGQSVTISCIGTSSDVGGYNYVSWYQQHPDKAPKLMIYEVNKRPSGVPDRFSGSKSGNTASLTVSGLQAEDEADYYCSSYAGNNNFGVFGGGTKLTVLGQPKAAPSVTLFPPSSEELQANKATLVCLISDFYPGAVTVAWKADSSPVKAGVETTTPSKQSNNKYAASSYLSLTPEQWKSHRSYSCQVTHEGSTVEKTVAPTECS
notes: recombinant human IgG4 S228P, lambda; also called BKO-4A8 IgG4; parental BKO-4A8

IC50 mean, Hu CXCL1, Tango β-arrestin (human CXCR2 [5]): 0.27 nM
IC50 mean, Hu CXCL2, Tango β-arrestin (human CXCR2 [5]): 0.36 nM
IC50 mean, Hu CXCL3, Tango β-arrestin (human CXCR2 [5]): 0.39 nM
IC50 mean, Hu CXCL5, Tango β-arrestin (human CXCR2 [5]): 0.3 nM
IC50 mean, Hu CXCL6, Tango β-arrestin (human CXCR2 [5]): 0.28 nM
IC50 mean, Hu CXCL7, Tango β-arrestin (human CXCR2 [5]): 0.44 nM
IC50 mean, Hu CXCL8, Tango β-arrestin (human CXCR2 [5]): 0.34 nM
IC50 mean, Hu CXCL1, calcium flux (human CXCR2 [6]): 1.55 nM
IC50 mean, Hu CXCL2, calcium flux (human CXCR2 [6]): 1.62 nM
IC50 mean, Hu CXCL3, calcium flux (human CXCR2 [6]): 0.63 nM
IC50 mean, Hu CXCL5, calcium flux (human CXCR2 [6]): 1.03 nM
IC50 mean, Hu CXCL6, calcium flux (human CXCR2 [6]): 1.71 nM
IC50 mean, Hu CXCL7, calcium flux (human CXCR2 [6]): 2.14 nM
EC50 (human CXCR2 [1]): 3.05 nM
Max binding (MFI Percent of 4A8 WT) (human CXCR2 [1]): 89%
Max binding (MFI) (human CXCR2 [1]): 55000 MFI
CXCL1 Fold Improvement over 4A8 WT (human CXCR2 [3]): 1.49 fold
CXCL1 IC50, Tango assay (human CXCR2 [3]): 0.63 nM
CXCL8 Fold Improvement over 4A8 WT (human CXCR2 [3]): 2.39 fold
CXCL8 IC50, Tango assay (human CXCR2 [3]): 0.28 nM
CXCL1 IC50, calcium flux (human CXCR2 [7]): 1.47 nM
CXCL1 IC50, β-arrestin recruitment (human CXCR2 [8]): 0.38 nM
CXCL5 IC50, β-arrestin recruitment (human CXCR2 [8]): 0.34 nM
CXCL8 IC50, β-arrestin recruitment (human CXCR2 [8]): 0.34 nM
B2: BKO-4A8-101c (antibody, human IgG4 S228P, lambda, V domains shown)
VH: EVQLLESGGGLVQPGGSLRLSCAASGFTFSSSTQSWVRQPPGKGLEWVSAISGRGRSTYYADSVKGRFTISRDNSKNTLYLQMNSLRAEDTAVYYCAIQAGYWGQGILVTVSS
VL: QSALTQPPSASGSPGQSVTISCIGTSSDVGGYNYVSWYQQHPGKAPKLMIYEVSKRPSGVPDRFSGSKSGNTASLTVSGLQAEDEADYYCSSYAGSNNFGVFGGGTKLTVLG

binding result (cynomolgus monkey CXCR2): binds
binding result (human CXCR2 [9]): binds
binding result (human CXCR1): no binding
B3: BKO-8G3_b (antibody, human IgG4 S228P, lambda, V domains shown)
VH: EVQLLESGGGLVQPGGSLRLSCAASGFTFSSYAMSWVRQAPGKGLEWVSAITGSGGSTYYADSVKGRFTISRDKSKNTLYLQMNSLRAEDTAVYYCAIRLGYWGQGSLVTVSS
VL: QSALTQPPSASGSPGQSVTISCTGTSSDVGGYNYVSWYQQHPGKVPKLVIYEVSKRPSGVPDRFSGSKSGNTASLTVSGLQAEDEADYYCSSYAGSNNFGVFGGGTKLTVLG
notes: recombinant human IgG4 S228P, lambda

binding result (cynomolgus monkey CXCR2): binds
binding result (human CXCR2 [9]): binds
binding result (human CXCR1): no binding
B4: BKO-9C3_a (antibody, human IgG4 S228P, lambda, V domains shown)
VH: EVQVLESGGGLVQPGGSLRLSCAASGFTFRSYAMSWVRQAPGKGLEWVSAISGSGGSTYYADSVKGRFTISRDKSKNTLYLQMNSLRAEDTAVYYCAIQLGYWGQGTLVTVSS
VL: QSALTQPPSASGSPGQSVIISCTGTSSDVGGYNYVSWYQQHPGKVPKLMIYEVSKRPSGVPDRFSGSKSGNTASLTVSGLQAEDEADYYCTSYAGSNNFGVFGGGTKLTVLG
notes: as for B3
